From patent US20030194391A1 (published 2003) come the findings set out here.

The target in experiment [1] is T1, mIL-13R1-Fc (catalogue number 491-IR-200, R+D Systems) (mouse, UniProt O09030 26-340).
T1 construct: Bought; also called mIL-13Rα1; mouse IL-13 receptor; not shown: Fc part; captured on plates with anti-human IgG
T1 sequence (looked up): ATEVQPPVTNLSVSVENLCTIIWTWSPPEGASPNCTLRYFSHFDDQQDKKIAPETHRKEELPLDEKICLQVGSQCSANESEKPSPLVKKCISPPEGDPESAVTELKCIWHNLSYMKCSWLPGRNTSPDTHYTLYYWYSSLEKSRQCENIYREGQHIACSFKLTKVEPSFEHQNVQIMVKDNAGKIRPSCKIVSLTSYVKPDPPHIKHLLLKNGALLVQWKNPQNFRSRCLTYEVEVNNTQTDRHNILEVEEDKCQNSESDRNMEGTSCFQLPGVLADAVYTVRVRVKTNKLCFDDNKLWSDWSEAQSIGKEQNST
Put plainly: ELISA, receptor-Fc captured on anti-human IgG, detection with biotinylated anti-mIL-13. On the procedure:
(§1) ELISAs were set up to determine whether cIL-13 could bind to either of the known mouse IL-13 receptors (mIL-13R1 or mIL-13R2). 96-well Maxisorp plates were coated with anti-human IgG (catalogue number I-3382, Sigma Aldrich) in carbonate-bicarbonate buffer overnight at 4° C. Plates were then blocked with 3% BSA/TBST for 1 hour at RT, washed 3 times in TBST, and incubated with mIL-13R1-Fc or mIL-13R2-Fc (catalogue numbers 491-IR-200 and 539-IR-100 respectively, R+D Systems) for 1 hour at RT. After washing, plates were incubated with dilutions of mIL-13 or cIL-13 or GST-cIL-13 for 1 hour at RT, washed again and incubated with biotinylated anti-mIL-13 (catalogue number BAF413, R+D Systems). Following further washing and incubation with streptavidin conjugated horse-radish peroxidase, the plates were developed with 0-phenylenediamine dihydrochloride peroxidase substrate for 30 minutes.

In experiment [2] the target is T2, mIL-13R2-Fc (catalogue number 539-IR-100, R+D Systems) (mouse, UniProt O88786 22-334).
T2 construct: Bought; also called mIL-13Rα2; mouse IL-13 receptor; not shown: Fc part; captured on plates with anti-human IgG
T2 sequence (looked up): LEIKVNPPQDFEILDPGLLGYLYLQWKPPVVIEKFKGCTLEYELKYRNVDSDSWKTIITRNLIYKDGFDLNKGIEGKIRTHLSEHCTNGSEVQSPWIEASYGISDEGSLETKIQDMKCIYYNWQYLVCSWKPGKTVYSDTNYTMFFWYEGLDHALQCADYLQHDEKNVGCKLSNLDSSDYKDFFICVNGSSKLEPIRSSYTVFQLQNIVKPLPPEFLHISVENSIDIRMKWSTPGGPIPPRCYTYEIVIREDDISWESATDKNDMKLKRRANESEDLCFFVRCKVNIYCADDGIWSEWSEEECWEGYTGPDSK
The experiment is described as above. On the procedure: as §1

The target of experiment [3] is T3, human type-2 IL-4 receptor expressed by the human lung fibroblast cell line A549 (human, UniProt P24394 26-825; P78552 22-427).
T3 sequence (looked up) 1: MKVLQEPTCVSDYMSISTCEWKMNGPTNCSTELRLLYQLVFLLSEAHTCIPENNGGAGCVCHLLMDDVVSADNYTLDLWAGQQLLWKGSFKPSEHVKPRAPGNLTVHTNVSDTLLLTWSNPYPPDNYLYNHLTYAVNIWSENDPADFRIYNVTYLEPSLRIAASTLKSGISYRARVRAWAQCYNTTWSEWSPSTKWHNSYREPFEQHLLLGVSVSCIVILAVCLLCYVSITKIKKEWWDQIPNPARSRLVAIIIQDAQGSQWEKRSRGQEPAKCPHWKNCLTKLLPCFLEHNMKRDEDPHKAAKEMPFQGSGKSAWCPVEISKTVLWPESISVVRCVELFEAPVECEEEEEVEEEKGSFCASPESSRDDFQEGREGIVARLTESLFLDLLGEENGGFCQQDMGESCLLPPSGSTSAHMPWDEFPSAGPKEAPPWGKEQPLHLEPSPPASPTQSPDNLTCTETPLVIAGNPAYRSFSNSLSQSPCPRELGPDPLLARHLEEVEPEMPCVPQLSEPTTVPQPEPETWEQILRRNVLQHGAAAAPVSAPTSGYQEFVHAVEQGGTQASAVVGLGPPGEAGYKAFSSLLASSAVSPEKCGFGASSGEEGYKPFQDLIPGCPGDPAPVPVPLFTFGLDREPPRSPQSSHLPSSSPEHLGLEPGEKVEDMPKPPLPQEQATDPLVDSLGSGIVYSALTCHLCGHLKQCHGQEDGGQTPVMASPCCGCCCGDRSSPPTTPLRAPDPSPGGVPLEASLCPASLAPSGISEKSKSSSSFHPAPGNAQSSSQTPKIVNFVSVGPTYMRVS
T3 sequence (looked up) 2: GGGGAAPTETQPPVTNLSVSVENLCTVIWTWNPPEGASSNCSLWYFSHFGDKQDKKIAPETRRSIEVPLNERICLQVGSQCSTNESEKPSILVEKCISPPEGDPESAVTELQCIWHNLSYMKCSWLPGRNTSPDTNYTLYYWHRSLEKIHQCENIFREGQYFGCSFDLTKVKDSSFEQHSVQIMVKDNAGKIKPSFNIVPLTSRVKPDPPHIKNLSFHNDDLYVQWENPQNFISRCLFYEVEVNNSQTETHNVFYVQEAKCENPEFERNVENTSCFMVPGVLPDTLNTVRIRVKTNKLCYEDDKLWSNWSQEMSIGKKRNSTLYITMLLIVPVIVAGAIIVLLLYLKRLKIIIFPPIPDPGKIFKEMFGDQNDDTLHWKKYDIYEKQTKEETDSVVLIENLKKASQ
Put plainly: cell-based or functional assay.

B1: chimaeric IL-13 (free cIL-13 generated from GST-cIL-13 by thrombin cleavage) (ligand)
chain: GPVPRSVSLPLTLRELIEELVNITQDQTPLCNGSMVWSVDLAAGGYCAALESLTNISNCNAIEKTQRMLGGLCNRKAPTTVSSLPDTKIEVAQFVKDLLSYTKQLFRHGPF
notes: also called mouse chimaeric IL-13 vaccine construct
On to B1, for which the binding result in experiment [1] and in experiment [2] was “binds” each time. The “fold decrease in bioactivity against mIL-13 (STAT6 phosphorylation in A549 cells)” value in experiment [3] was about 5 fold.

B2: GST-cIL-13 (genetic fusion protein of glutathione-S-transferase and chimaeric IL-13) (other)
chain: B1 chain
notes: Expressed in E. coli BLR from pGEX4T3-cIL-13; also called GST-cIL-3; not shown: glutathione-S-transferase as encoded by vector pGEX4T3 (Amersham Pharmacia); short spacer which contains the recognition site for thrombin
On to B2, for which the binding result in experiment [1] and in experiment [2] was “binds” each time.
